Data from patent publication US20170306032A1 (RESEARCH CORPORATION TECHNOLOGIES, published 2017).

Experiments:
[1] = molecular target: T1, human EphA2 receptor expressed on cells (HEK293-EphA2, CHO-EphA2, PC-3) (human, UniProt P29317 24-976); assay: immunofluorescence on PC-3 cells expressing endogenous EphA2 receptor, 4° C. for 30 minutes
T1 construct: whole, on cells; also called EphA2 transfected cells; HEK293-EphA2 overexpressing cells

[2] = molecular target: T2, FcRn; assay: SPR
T2 construct: also called neonatal receptor FcRn
T2 sequence (P55899 24-297, chain 1 of 2): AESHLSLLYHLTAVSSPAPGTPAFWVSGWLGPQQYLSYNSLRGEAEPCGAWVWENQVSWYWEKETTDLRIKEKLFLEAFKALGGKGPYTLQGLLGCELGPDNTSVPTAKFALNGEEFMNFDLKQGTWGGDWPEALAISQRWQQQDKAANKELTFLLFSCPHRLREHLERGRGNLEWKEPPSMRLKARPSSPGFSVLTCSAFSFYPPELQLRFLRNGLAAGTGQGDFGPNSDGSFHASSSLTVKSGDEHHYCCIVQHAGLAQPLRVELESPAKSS
T2 sequence (P61769 21-119, chain 2 of 2, further chain): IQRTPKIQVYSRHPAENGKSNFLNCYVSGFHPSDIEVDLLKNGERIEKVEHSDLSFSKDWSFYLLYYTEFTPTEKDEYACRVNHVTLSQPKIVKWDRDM

[3] = molecular target: T1, human EphA2 receptor expressed on cells …; assay: FACS titration on human EphA2 transfected CHO cells, anti-His-FITC detection [upper panel]
[4] = molecular target: T3, mouse EphA2 recombinant protein (Fc chimera, R&D Systems, cat#639-A2) (mouse, UniProt Q03145 26-535); assay: SPR, Biacore 3000, on mEphA2
T3 construct: Biotinylated for the Octet assay; also called mEphA2-Fc; mEphA2; Fc part of the bought chimera not given
T3 sequence (Q03145 26-535, change not shown): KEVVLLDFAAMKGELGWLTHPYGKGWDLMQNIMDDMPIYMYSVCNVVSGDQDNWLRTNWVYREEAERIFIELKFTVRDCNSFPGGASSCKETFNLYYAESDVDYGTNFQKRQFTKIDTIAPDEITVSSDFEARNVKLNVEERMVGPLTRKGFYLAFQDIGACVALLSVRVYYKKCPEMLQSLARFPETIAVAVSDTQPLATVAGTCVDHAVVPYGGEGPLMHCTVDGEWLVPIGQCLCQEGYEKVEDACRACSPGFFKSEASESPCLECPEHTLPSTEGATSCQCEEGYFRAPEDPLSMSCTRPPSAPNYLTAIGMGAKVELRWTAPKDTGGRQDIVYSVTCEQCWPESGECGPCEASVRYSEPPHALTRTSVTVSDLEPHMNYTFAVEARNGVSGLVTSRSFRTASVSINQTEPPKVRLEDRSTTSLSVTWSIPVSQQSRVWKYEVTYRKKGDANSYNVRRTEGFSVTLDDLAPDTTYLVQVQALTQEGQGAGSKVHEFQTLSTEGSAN

[5] = molecular target: BSA (bovine serum albumin, control) (bovine, UniProt P02769 25-607); assay: phage ELISA on coated BSA, anti-M13-HRP
Chain of BSA (bovine serum albumin, control) (P02769 25-607 limits assumed): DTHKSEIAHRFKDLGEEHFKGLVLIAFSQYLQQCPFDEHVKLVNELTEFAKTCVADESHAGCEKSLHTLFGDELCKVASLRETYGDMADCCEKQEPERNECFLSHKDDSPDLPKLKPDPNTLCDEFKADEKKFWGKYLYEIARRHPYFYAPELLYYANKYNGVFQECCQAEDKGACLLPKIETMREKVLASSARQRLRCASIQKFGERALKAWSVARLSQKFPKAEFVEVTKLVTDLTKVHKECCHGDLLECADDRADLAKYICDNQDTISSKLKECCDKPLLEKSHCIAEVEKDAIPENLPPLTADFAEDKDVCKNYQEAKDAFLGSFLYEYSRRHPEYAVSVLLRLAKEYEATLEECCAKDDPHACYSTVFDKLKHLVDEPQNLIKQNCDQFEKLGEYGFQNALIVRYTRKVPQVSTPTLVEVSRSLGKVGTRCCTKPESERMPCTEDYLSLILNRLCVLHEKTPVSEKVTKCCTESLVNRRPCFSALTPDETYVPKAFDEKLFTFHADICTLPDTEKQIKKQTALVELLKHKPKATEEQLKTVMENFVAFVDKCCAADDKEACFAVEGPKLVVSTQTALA

[6] = molecular target: T4, human EphA2 recombinant protein (purified human EphA2 extracellular domain) (human, UniProt P29317 24-537); assay: phage ELISA on coated hEphA2, anti-M13-HRP, developed 30 min
T4 construct: extracellular domain; Biotinylated for the Octet assay; also called hEphA2; huEphA2
T4 sequence (P29317 24-537): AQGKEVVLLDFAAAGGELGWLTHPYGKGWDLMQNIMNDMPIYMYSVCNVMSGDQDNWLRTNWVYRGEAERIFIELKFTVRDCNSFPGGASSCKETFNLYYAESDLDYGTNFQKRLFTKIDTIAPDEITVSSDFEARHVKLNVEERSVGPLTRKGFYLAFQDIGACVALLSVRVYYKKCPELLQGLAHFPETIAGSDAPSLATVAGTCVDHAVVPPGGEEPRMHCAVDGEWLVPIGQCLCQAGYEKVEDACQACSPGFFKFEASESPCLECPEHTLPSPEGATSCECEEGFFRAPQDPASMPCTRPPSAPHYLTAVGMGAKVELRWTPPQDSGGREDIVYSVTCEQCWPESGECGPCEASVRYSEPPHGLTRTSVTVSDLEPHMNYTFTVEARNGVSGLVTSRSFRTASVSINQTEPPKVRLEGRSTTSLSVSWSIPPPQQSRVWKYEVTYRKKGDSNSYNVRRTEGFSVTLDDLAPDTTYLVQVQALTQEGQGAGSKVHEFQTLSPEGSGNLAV

[7] = molecular target: T1, human EphA2 receptor expressed on cells …; assay: phage ELISA on fixed HEK293 cells with doxycycline-induced EphA2 (NO DOX, 100, 50, 25 ng/ml), anti-M13-HRP
[8] = molecular target: T3, mouse EphA2 recombinant protein (Fc …); assay: end-point titration ELISA on mEphA2
[9] = molecular target: T4, human EphA2 recombinant protein …; assay: end-point titration ELISA on huEphA2
[10] = molecular target: T1, human EphA2 receptor expressed on cells …; assay: FACS on CHO cells transfected with human EphA2
[11] = molecular target: T4, human EphA2 recombinant protein …; assay: SPR, Biacore 3000, immobilized huEphA2 extracellular domain
[12] = molecular target: T4, human EphA2 recombinant protein …; assay: SPR, Biacore 3000, immobilized huEphA2 extracellular domain, KDkinetic
[13] = molecular target: T4, human EphA2 recombinant protein …; assay: SPR, Biacore 3000, immobilized huEphA2 extracellular domain, KDequilibrium
[14] = molecular target: T3, mouse EphA2 recombinant protein (Fc …); assay: BLI, Octet Red, biotinylated mEphA2 on streptavidin sensors, steady state fit (column head prints EC50, title KD)
[15] = molecular target: T4, human EphA2 recombinant protein …; assay: BLI, Octet Red, biotinylated huEphA2 on streptavidin sensors, steady state fit (column head prints EC50, title KD)

T1 sequence (P29317 24-976): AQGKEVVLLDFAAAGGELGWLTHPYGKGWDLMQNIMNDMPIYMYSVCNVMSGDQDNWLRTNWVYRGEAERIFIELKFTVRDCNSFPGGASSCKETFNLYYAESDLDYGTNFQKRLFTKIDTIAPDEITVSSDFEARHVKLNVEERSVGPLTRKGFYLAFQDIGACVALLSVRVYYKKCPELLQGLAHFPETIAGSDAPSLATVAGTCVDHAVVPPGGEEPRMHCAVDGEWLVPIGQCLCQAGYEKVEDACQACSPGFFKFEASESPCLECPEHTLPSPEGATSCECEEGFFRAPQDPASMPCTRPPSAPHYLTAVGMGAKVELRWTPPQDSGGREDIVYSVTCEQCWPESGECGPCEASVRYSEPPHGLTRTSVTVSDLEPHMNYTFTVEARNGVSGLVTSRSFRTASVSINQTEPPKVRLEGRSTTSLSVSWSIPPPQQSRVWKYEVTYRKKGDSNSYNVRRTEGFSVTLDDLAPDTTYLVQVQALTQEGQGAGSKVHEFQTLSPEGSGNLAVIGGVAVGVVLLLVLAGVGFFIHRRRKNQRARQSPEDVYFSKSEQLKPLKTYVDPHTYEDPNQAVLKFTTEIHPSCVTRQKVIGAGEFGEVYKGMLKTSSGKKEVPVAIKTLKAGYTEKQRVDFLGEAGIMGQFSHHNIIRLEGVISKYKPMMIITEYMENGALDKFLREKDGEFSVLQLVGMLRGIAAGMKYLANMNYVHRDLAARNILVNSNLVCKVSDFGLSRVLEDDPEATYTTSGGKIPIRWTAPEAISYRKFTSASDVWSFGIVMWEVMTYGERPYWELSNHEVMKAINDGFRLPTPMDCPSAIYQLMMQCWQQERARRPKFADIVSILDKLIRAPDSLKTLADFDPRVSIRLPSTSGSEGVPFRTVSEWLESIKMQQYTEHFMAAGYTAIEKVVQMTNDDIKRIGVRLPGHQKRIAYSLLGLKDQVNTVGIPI

| Binder | binding result [1] | Kd [4] [µM] | koff [4] [s⁻¹] | kon [4] [M⁻¹ s⁻¹] | EC50 [8] [µM] | EC50 [9] [µM] | EC50 [10] [µM] | Kd [14] [µM] | Kd [15] [µM] | other results |
| --- | --- | --- | --- | --- | --- | --- | --- | --- | --- | --- |
| B11 modified CH2 domain SEQ ID NO: 91 (C terminal cysteine) conjugated with Biotin-dPEG11 (designed binder, conjugated with Biotin-dPEG11-MAL after reduction with DTT; the residue that carries it is not stated (chain has a C terminal cysteine), also called B11-dPEG-biotin) GPSVFLFPPKPKDTLMISRTPEVTCVVVDYRADYLDVKFNWYVNGAEVHHAQTKPRQYDPLYGYRVVSVLTVTHQDWLNGKEYTCKVSNKALPAPIQKTISKDC | binds | – | – | – | – | – | – | – | – | – |
| B11 modified CH2 domain SEQ ID NO: 89 (C terminal cysteine and N terminal hinge sequence) conjugated with Biotin-dPEG11 (designed binder, conjugated with Biotin-dPEG11-MAL after reduction with DTT; the residue that carries it is not stated (chain has a C terminal cysteine), also called B11-dPEG-biotin) GSCDKTHTAPEKKGGPSVFLFPPKPKDTLMISRTPEVTCVVVDYRADYLDVKFNWYVNGAEVHHAQTKPRQYDPLYGYRVVSVLTVTHQDWLNGKEYTCKVSNKALPAPIQKTISKDC | binds | – | – | – | – | – | – | – | – | – |
| B11 modified CH2 domain SEQ ID NO: 90 (N terminal hinge sequence) conjugated with Biotin-dPEG11 (designed binder, conjugated with Biotin-dPEG11-MAL after reduction with DTT; the residue that carries it is not stated, also called B11-dPEG-biotin) GSCDKTHTAPEKKGGPSVFLFPPKPKDTLMISRTPEVTCVVVDYRADYLDVKFNWYVNGAEVHHAQTKPRQYDPLYGYRVVSVLTVTHQDWLNGKEYTCKVSNKALPAPIQKTISKDK | binds | – | – | – | – | – | – | – | – | – |
| wild type CH2D (wild type human IgG CH2 domain) (other, also called CH2wt) APELLGGPSVFLFPPKPKDTLMISRTPEVTCVVVDVSHEDPEVKFNWYVDGVEVHNAKTKPREEQYNSTYRVVSVLTVLHQDWLNGKEYKCKVSNKALPAPIEKTISKAK | – | – | – | – | – | – | – | – | – | Kd [2]: 1.66 µM; binding result [3]: no binding (tested: about 3.6 µM) |
| E10 modified CH2 domain (first generation loop 2 clone, parental clone of the affinity maturation) (designed binder, purified protein elsewhere; also called E10par) GPSVFLFPPKPKDTLMISRTPEVTCVVVDVSHEDPEVKFNWYVDGAEVHHAQTKPRQYDPLYGYRVVSVLTVLHQDWLNGKEYKCKVSNKALPAPIEKTISKAK | – | 0.097 | 0.008 | 79100 | – | – | – | – | – | Kd [2]: 3.26 µM; binding result [5]: no binding; binding result [6]: binds; binding result [7]: binds |
| H6 modified CH2 domain (first generation loop 2 clone) (designed binder, purified on a Nickel column from E. coli periplasm for protein ELISA and SPR) GPSVFLFPPKPKDTLMISRTPEVTCVVVDVSHEDPEVKFNWYVDGAEVHHAQTKPRRVDPLGGYRVVSVLTVLHQDWLNGKEYKCKVSNKALPAPIEKTISKAK | – | 0.873 | 0.008 | 9610 | – | – | – | – | – | binding result [5]: no binding; binding result [6]: binds; binding result [7]: binds |
| G7 modified CH2 domain (affinity matured, loop 1 PHLGVD, loop 2 of E10) (designed binder) GPSVFLFPPKPKDTLMISRTPEVTCVVVDPHLGVDEVKFNWYVDGAEVHHAQTKPRQYDPLYGYRVVSVLTVLHQDWLNGKEYKCKVSNKALPAPIEKTISKAK | – | – | – | – | 0.00318 | 0.00806 | 0.333 | 0.021 | 0.018 | koff [11]: 0.0375 s⁻¹; kon [11]: 1.8e+06 M⁻¹ s⁻¹; Kd [12]: 0.021 µM; Kd [13]: 0.022 µM |
| B11 modified CH2 domain (affinity matured, loop 1 YRADYL, loop 2 of E10) (designed binder) GPSVFLFPPKPKDTLMISRTPEVTCVVVDYRADYLEVKFNWYVDGAEVHHAQTKPRQYDPLYGYRVVSVLTVLHQDWLNGKEYKCKVSNKALPAPIEKTISKAK | – | – | – | – | 0.00989 | 0.00443 | 0.403 | 0.0055 | 0.0031 | koff [11]: 0.0158 s⁻¹; kon [11]: 1.21e+06 M⁻¹ s⁻¹; Kd [12]: 0.013 µM; Kd [13]: 0.0139 µM |
| D2 modified CH2 domain (affinity matured, loop 1 YEAAAL, loop 2 of E10) (designed binder, Expressed in Shuffle cells, purified on HisTrap) GPSVFLFPPKPKDTLMISRTPEVTCVVVDYEAAALEVKFNWYVDGAEVHHAQTKPRQYDPLYGYRVVSVLTVLHQDWLNGKEYKCKVSNKALPAPIEKTISKAK | – | – | – | – | 0.00197 | 0.00255 | 1.31 | 0.018 | 0.02 | – |
| H3 (first generation loop 2 clone, loop 2 AYYALGG) (designed binder, From library #15 (Glu293 to Thr299 randomised); A9 is kept apart as m12; also called H3par) GPSVFLFPPKPKDTLMISRTPEVTCVVVDVSHEDPEVKFNWYVDGAEVHHAQTKPRAYYALGGYRVVSVLTVLHQDWLNGKEYKCKVSNKALPAPIEKTISKAK | – | 0.383 | 0.014 | 36400 | – | – | – | – | – | – |
